Values of other authors in publication PMC2883863.

How the values were obtained:
Cys30 = Cys30 (UniProt position 49, FFSFFCPHCYQ); conditions: not stated (quoted literature value for E. coli DsbA)
Cys32 = Cys32 (UniProt position 33, FWAEWCGPCKM); conditions: not stated (quoted literature value for E. coli thioredoxin)

## Thiol:disulfide interchange protein DsbA (Escherichia coli)
Cys30
  pKa: 3.5

## Thioredoxin 1 (Escherichia coli)
Cys32
  pKa: 7.5
